Source: paper PMC10397247
Each block holds one binder with its values, some of them ahead of it.

What was measured:
Experiment in all cases: two-hybrid library CCmax;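 note: natural log of median RNA to DNA barcode read ratio; higher means stronger binding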
4H2592-AA = target: T1, 4H2592-AA
T1 chain: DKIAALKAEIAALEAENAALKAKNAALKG

4H2611-AA = target: T2, 4H2611-AA; settings: mean of both orientations
T2 chain: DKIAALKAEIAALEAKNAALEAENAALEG

4H2732-AA = target: T3, 4H2732-AA; settings: mean of both orientations
T3 chain: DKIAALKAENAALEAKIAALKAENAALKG

4H2774-AA = target: T4, 4H2774-AA; settings: mean of both orientations
T4 chain: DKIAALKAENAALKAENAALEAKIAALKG

4H2931-AA = target: T5, 4H2931-AA; settings: mean of both orientations
T5 chain: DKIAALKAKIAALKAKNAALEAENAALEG

4H3001-AA = target: T6, 4H3001-AA; settings: mean of both orientations
T6 chain: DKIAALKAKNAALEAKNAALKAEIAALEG

4H3015-AA = target: T7, 4H3015-AA; settings: mean of both orientations
T7 chain: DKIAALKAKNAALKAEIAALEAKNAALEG

4H3073-AA = target: T8, 4H3073-AA; settings: mean of both orientations
T8 chain: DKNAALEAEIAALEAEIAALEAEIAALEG

4H3340-AA = target: T9, 4H3340-AA; settings: mean of both orientations
T9 chain: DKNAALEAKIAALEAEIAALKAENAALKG

4H3381-AA = target: T10, 4H3381-AA; settings: mean of both orientations
T10 chain: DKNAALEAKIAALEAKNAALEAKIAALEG

4H3438-AA = target: T11, 4H3438-AA; settings: mean of both orientations
T11 chain: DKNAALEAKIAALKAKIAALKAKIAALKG

4H347-AA = target: T12, 4H347-AA; settings: mean of both orientations
T12 chain: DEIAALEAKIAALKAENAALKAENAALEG

4H3493-AA = target: T13, 4H3493-AA; settings: mean of both orientations
T13 chain: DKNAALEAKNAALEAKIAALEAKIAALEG

4H376-AA = target: T14, 4H376-AA; settings: mean of both orientations
T14 chain: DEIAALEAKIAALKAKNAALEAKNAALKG

4H406-AA = target: T15, 4H406-AA; settings: mean of both orientations
T15 chain: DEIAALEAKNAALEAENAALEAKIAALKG

4H452-AA = target: T16, 4H452-AA; settings: mean of both orientations
T16 chain: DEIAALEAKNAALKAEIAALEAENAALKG

4H56-AA = target: T17, 4H56-AA; settings: mean of both orientations
T17 chain: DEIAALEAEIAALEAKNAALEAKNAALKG

4H688-AA = target: T18, 4H688-AA; settings: mean of both orientations
T18 chain: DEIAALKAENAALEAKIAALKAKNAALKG

4H963-AA = target: T19, 4H963-AA; settings: mean of both orientations
T19 chain: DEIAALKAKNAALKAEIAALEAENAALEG

4H_APH = target: T20, 4H_APH; settings: mean of both orientations
T20 chain: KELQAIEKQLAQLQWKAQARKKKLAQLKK

4H_BCR = target: T21, 4H_BCR; settings: mean of both orientations
T21 chain: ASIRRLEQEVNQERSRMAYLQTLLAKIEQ

4H_GCN4 = target: 4H_GCN4
Sequence of 4H_GCN4 (chain, as listed by the source): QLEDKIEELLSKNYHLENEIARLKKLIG

GCN2_T = target: GCN2_T
4H2151-AA = target: T22, 4H2151-AA
T22 chain: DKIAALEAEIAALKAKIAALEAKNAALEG

4H2165-AA = target: T23, 4H2165-AA; settings: mean of both orientations
T23 chain: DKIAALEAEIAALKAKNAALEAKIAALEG

4H2190-AA = target: T24, 4H2190-AA; settings: mean of both orientations
T24 chain: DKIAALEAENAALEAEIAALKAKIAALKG

4H2277-AA = target: T25, 4H2277-AA; settings: mean of both orientations
T25 chain: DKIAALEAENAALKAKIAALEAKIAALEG

4H234-AA = target: T26, 4H234-AA; settings: mean of both orientations
T26 chain: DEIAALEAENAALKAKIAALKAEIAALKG

4H2354-AA = target: T27, 4H2354-AA; settings: mean of both orientations
T27 chain: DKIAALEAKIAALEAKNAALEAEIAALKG

4H2393-AA = target: T28, 4H2393-AA; settings: mean of both orientations
T28 chain: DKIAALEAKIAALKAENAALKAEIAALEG

4H2466-AA = target: T29, 4H2466-AA; settings: mean of both orientations
T29 chain: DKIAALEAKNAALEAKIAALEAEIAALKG

4H2505-AA = target: T30, 4H2505-AA; settings: mean of both orientations
T30 chain: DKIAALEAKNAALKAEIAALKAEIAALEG

4H2617-AA = target: T31, 4H2617-AA; settings: mean of both orientations
T31 chain: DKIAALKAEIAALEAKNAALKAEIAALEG

4H2642-AA = target: T32, 4H2642-AA; settings: mean of both orientations
T32 chain: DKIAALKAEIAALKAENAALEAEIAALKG

4H2729-AA = target: T33, 4H2729-AA; settings: mean of both orientations
T33 chain: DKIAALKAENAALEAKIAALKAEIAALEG

4H2754-AA = target: T34, 4H2754-AA; settings: mean of both orientations
T34 chain: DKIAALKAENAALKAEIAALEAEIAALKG

4H2837-AA = target: T35, 4H2837-AA; settings: mean of both orientations
T35 chain: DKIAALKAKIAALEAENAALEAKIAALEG

4H2883-AA = target: T36, 4H2883-AA; settings: mean of both orientations
T36 chain: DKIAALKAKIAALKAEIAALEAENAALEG

4H2944-AA = target: T37, 4H2944-AA; settings: mean of both orientations
T37 chain: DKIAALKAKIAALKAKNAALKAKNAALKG

4H2949-AA = target: T38, 4H2949-AA; settings: mean of both orientations
T38 chain: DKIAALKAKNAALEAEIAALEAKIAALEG

4H3112-AA = target: T39, 4H3112-AA; settings: mean of both orientations
T39 chain: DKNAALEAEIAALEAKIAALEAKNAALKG

4H317-AA = target: T40, 4H317-AA; settings: mean of both orientations
T40 chain: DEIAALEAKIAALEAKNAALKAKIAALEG

4H3343-AA = target: T41, 4H3343-AA; settings: mean of both orientations
T41 chain: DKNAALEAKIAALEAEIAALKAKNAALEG

4H342-AA = target: T42, 4H342-AA; settings: mean of both orientations
T42 chain: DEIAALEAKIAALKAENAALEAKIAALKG

4H3427-AA = target: T43, 4H3427-AA; settings: mean of both orientations
T43 chain: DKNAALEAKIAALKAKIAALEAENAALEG

4H3606-AA = target: T44, 4H3606-AA; settings: mean of both orientations
T44 chain: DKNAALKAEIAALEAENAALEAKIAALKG

4H3627-AA = target: T45, 4H3627-AA; settings: mean of both orientations
T45 chain: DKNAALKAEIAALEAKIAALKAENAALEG

4H3655-AA = target: T46, 4H3655-AA; settings: mean of both orientations
T46 chain: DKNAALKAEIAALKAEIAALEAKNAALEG

4H3844-AA = target: T47, 4H3844-AA; settings: mean of both orientations
T47 chain: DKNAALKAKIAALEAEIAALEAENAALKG

4H429-AA = target: T48, 4H429-AA; settings: mean of both orientations
T48 chain: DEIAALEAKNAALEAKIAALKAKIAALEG

4H454-AA = target: T49, 4H454-AA; settings: mean of both orientations
T49 chain: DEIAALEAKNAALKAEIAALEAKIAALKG

4H48-AA = target: T50, 4H48-AA; settings: mean of both orientations
T50 chain: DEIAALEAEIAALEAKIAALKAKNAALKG

4H566-AA = target: T51, 4H566-AA; settings: mean of both orientations
T51 chain: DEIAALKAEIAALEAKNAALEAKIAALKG

4H605-AA = target: T52, 4H605-AA; settings: mean of both orientations
T52 chain: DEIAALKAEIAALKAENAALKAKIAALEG

4H678-AA = target: T53, 4H678-AA; settings: mean of both orientations
T53 chain: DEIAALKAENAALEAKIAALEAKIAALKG

4H717-AA = target: T54, 4H717-AA; settings: mean of both orientations
T54 chain: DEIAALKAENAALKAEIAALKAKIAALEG

4H794-AA = target: T55, 4H794-AA; settings: mean of both orientations
T55 chain: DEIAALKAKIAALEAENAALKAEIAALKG

4H881-AA = target: T56, 4H881-AA; settings: mean of both orientations
T56 chain: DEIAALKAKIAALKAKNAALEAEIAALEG

4H906-AA = target: T57, 4H906-AA; settings: mean of both orientations
T57 chain: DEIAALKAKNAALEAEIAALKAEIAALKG

4H993-AA = target: T58, 4H993-AA; settings: mean of both orientations
T58 chain: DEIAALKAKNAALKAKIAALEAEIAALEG

interaction score (4H2592-AA): 1.34 | interaction score (4H2611-AA): 0.971 | interaction score (4H2732-AA): 0.248 | interaction score (4H2774-AA): 0.283 | interaction score (4H2931-AA): 1.75 | interaction score (4H3001-AA): -1.68 | interaction score (4H3015-AA): -1.39 | interaction score (4H3073-AA): -0.000754 | interaction score (4H3340-AA): 0.143 | interaction score (4H3381-AA): -1.72 | interaction score (4H3438-AA): -0.819 | interaction score (4H347-AA): 1.59 | interaction score (4H3493-AA): -1.21 | interaction score (4H376-AA): 0.226 | interaction score (4H406-AA): -1.19 | interaction score (4H452-AA): -0.641 | interaction score (4H56-AA): -0.726 | interaction score (4H688-AA): -1.42 | interaction score (4H963-AA): -0.435 | interaction score (4H_APH): -1.66 | interaction score (4H_BCR): -1.75 | interaction score (4H_GCN4): -1.33 | interaction score (GCN2_T): -1.04
B1: 4H2592-AA (peptide)
chain: DKIAALKAEIAALEAENAALKAKNAALKG

interaction score (4H2151-AA): 1.45 | interaction score (4H2165-AA): -0.932 | interaction score (4H2190-AA): -1.15 | interaction score (4H2277-AA): -1.38 | interaction score (4H234-AA): -1.58 | interaction score (4H2354-AA): -1.44 | interaction score (4H2393-AA): -1.54 | interaction score (4H2466-AA): -1.42 | interaction score (4H2505-AA): -1.6 | interaction score (4H2617-AA): -0.476 | interaction score (4H2642-AA): -1.42 | interaction score (4H2729-AA): -0.63 | interaction score (4H2754-AA): -1.27 | interaction score (4H2837-AA): -1.4 | interaction score (4H2883-AA): 0.105 | interaction score (4H2944-AA): -1.39 | interaction score (4H2949-AA): -0.904 | interaction score (4H3112-AA): -0.356 | interaction score (4H317-AA): -0.983 | interaction score (4H3343-AA): -1.19 | interaction score (4H342-AA): -1.26 | interaction score (4H3427-AA): -1.02 | interaction score (4H3606-AA): -1.24 | interaction score (4H3627-AA): -0.182 | interaction score (4H3655-AA): -0.942 | interaction score (4H3844-AA): -0.871 | interaction score (4H429-AA): -1.48 | interaction score (4H454-AA): -1.11 | interaction score (4H48-AA): 0.747 | interaction score (4H566-AA): -1.47 | interaction score (4H605-AA): -1.4 | interaction score (4H678-AA): -1.37 | interaction score (4H717-AA): -1.61 | interaction score (4H794-AA): -1.95 | interaction score (4H881-AA): -1.51 | interaction score (4H906-AA): -1.28 | interaction score (4H993-AA): -1.43
B2: 4H2151-AA (peptide)
chain: DKIAALEAEIAALKAKIAALEAKNAALEG
